Measurements published in PMC2816707.
Numbering of substitutions follows the chain as printed. Names may count otherwise.

Molecular target: humanized EBV321
Assay: ELISA
Conditions: chain shown with the change; point at the highest antibody concentration, about 13.3 nM (read from x axis); VEGF captured on ELISA plate; parent: est. 0.66; read off a plot

B1: rabbit IgG Fc-hVEGF (human VEGF165) fusion protein, wild type, P15692-4 G88A (protein)
chain: APMAEGGGQNHHEVVKFMDVYQRSYCHPIETLVDIFQEYPDEIEYIFKPSCVPLMRCGGCCNDEGLECVPTEESNITMQIMRIKPHQAQHIGEMSFLQHNKCECRPKKDRARQENPCGPCSERRKHLFVQDPQTCKCSCKNTDSRCKARQLELNERTCRCDKPRR
response: 0.73 OD (405nm)

B2: rabbit IgG Fc-hVEGF (human VEGF165) fusion protein, wild type, P15692-4 I46A (protein)
chain: B1 chain with I46A, A88G
response: 0.7 OD (405nm)
